We go through ten substances from patent US20210046160A1 (Synthorx, Inc., priority 2019, published 2021).

The target in series [1] is T1, IL-2 receptor βγ complex (IL-2Rβ and IL-2Rγ subunits) (Homo sapiens, UniProt P14784+P31785).
T1 construct: host or cells: recombinant human U2OS cell line (PathHunter)
T1 sequence (P14784 27-551): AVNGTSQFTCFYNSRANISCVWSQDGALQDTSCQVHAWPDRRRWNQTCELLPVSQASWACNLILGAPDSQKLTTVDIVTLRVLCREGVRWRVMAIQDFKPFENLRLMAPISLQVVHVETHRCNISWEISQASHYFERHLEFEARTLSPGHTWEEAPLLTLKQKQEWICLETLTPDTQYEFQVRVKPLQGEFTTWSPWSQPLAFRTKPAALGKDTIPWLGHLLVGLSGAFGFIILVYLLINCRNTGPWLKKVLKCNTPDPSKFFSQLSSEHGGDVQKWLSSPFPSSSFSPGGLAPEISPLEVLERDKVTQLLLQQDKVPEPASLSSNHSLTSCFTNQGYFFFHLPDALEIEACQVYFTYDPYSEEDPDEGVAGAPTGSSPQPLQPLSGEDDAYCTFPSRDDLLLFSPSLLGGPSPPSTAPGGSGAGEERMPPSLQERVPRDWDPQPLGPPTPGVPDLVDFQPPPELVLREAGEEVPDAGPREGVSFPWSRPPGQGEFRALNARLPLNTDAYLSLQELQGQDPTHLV
T1 sequence (P31785 23-369): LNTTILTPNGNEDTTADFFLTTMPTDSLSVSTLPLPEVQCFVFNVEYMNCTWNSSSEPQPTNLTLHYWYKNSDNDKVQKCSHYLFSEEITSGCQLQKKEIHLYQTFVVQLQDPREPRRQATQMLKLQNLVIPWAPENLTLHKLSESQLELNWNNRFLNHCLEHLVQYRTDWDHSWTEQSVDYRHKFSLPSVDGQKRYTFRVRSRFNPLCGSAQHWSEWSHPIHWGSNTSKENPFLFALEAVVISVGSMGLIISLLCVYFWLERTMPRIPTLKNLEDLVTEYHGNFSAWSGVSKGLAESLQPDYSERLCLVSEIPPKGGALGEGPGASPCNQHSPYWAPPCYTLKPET
The series is described as follows: PathHunter IL-2 Cytokine Receptor assay, agonist mode, βγ cell line. Type of series: cell-based. As to conditions: for EC50: IL2Rα-negative U2OS cell line, 10 kD PEGylated conjugates, * = 30 kD; for βγ/αβγ ratio: ratio of the EC50 values. Here is the method: (§1) PathHunter cell lines were expanded from freezer stocks according to standard procedures. Cells were seeded in a total volume of 20 μL into white walled, 384-well microplates and incubated for the appropriate time prior to testing.
(§2) For agonist determination, cells were incubated with sample to induce response. Intermediate dilution of sample stocks was performed to generate 5× sample in assay buffer. About 5 μL of 5× sample was added to cells and incubated at 37° C. for 6 to 16 hours depending on the assay. Vehicle concentration was 1%.
(§3) Assay signal was generated through a single addition of 12.5 or 15 μL (50% v/v) of PathHunter Detection reagent cocktail for agonist and antagonist assays respectively, followed by a one hour incubation at room temperature. For some assays, activity was detected using a high sensitivity detection reagent (PathHunter Flash Kit) to improve assay performance. In these assays, an equal volume of detection reagent (25 or 30 μL) was added to the wells, followed by a one hour incubation at room temperature. Microplates were read following signal generation with a PerkinElmer Envision™ instrument for chemiluminescent signal detection.
(§4) Compound activity was analyzed using CBIS data analysis suite (ChemInnovation, CA). For agonist mode assays, percentage activity was calculated using the following Formula:
(§5) % Activity=100%×(mean RLU of test sample−mean RLU of vehicle control)/(mean MAX RLU control ligand−mean RLU of vehicle control).
(§6) A second cell line has been further engineered to express the IL-2Rα subunit. […] The assay was run in agonist mode to determine the EC50 of each test article, and comparison of dose-response curve profiles between IL2Rα positive and negative cell types allows determination of the contribution of IL2Rα to the observed activity.

In series [2] the target is T2, IL-2 receptor αβγ complex (Homo sapiens, UniProt P01589+P14784+P31785).
T2 construct: host or cells: recombinant human U2OS cell line (PathHunter), further engineered to express IL-2Rα
T2 sequence (P01589 22-272): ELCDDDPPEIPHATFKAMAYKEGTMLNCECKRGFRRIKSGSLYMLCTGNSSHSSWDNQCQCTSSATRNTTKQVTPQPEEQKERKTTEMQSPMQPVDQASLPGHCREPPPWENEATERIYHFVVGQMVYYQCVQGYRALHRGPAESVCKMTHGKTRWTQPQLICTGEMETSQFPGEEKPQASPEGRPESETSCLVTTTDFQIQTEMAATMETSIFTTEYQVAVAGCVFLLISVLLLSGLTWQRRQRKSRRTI
T2 sequence (P14784 27-551): T1 sequence (P14784 27-551)
T2 sequence (P31785 23-369): T1 sequence (P31785 23-369)
The series is described as follows: PathHunter IL-2 Cytokine Receptor assay, agonist mode, cell line further expressing IL-2Rα. Type of series: cell-based. The settings on record: IL2Rα-positive U2OS cell line; 10 kD PEGylated conjugates, * = 30 kD. The protocol: as §1, §2, §3, §4, §5, §6

Series [3] in a line: PK study E3826-U1704 in naïve C57BL/6 mice (human IL-2 ELISA of plasma). As to conditions: for t½: 0.3 mg/kg. Type of series: in vivo. Here is the method:
(§7) Terminal blood samples were collected via cardiac puncture at the points indicated. […] Plasma and blood cells (in both studies) and tumors in study E3826-U1803 were collected for PK and PD analyses.
Bioanalysis of plasma samples was performed using a qualified human IL-2 ELISA assay (Abcam, Cambridge, UK). Concentrations of Aldesleukin, E62_30kD and P65_30kD and the internal standard in samples derived from plasma were determined using an ELISA assay. […] The PK data were imported into Phoenix WinNonlin v6.4 (Certara/Pharsight, Princeton, N.J.) for analysis. The group mean plasma concentration versus time data were analyzed with noncompartmental methods using an IV bolus administration model.

For series [4], the system named is pSTAT5 and proliferation in CD8+ T, NK and Treg cells. The series is described as follows: Pharmacodynamics in peripheral blood compartment (pSTAT5, Ki-67, cell counts), Example 5. It is filed as in vivo, C57BL/6 mice. As to conditions: mice.
From the text: as §7
STAT5 phosphorylation and induction of cell proliferation (the early molecular marker Ki-67 and cell counts) was used as pharmacodynamics readouts to assess the pharmacological profile of P65_30kD relative to its pharmacokinetics.

Series [5] can be described thus: MTD / toxicology study E3826-U1802 in naïve Balb/c mice (hematology, histopathology, organ weight, cytokines). It is filed as in vivo. As to conditions: Balb/c mice. Here is the method:
A dose ranging study of P65_30kD was conducted in naïve female Balb/c mice at Crown Biosciences, Inc. (San Diego, Calif.). […] Blood samples were drawn via sub mandibular vein at 8 time points (0.25, 1, 4, 12, 24, 34, 48 & 72 h).
A major of toxicity associated with high-dose aldesleukin is vascular leak syndrome and associated Cytokine Release Syndrome (CRS). […] The analysis performed was hematology, histopathology, organ weight, and cytokine analyses.

Where [6] appears, read: C57BL/6 female mice, single IV bolus 0.3 mg/kg, E62_5 kD from a separate study.

Turning to “E62: Table 2: 10 kD PEGylated IL-2 conjugate at site E62 [Compound E62]”, in series [1], a half-maximal effect (EC50) was put at 3 nM and the βγ/αβγ ratio turned out to be 2. The same substance displayed an EC50 in series [2] of 1.5 nM.

For the substance “E68: Table 2: 10 kD PEGylated IL-2 conjugate at site E68 [Compound E68]”, in series [1], it took 7.7 nM to reach a half-maximal effect (EC50) and the βγ/αβγ ratio stood at 86. In series [2], this substance showed an EC50 of 0.0893 nM.

Consider “F42: Table 2: 10 kD PEGylated IL-2 conjugate at site F42 [Compound F42]”, for which, in series [1], the 50% effective concentration (EC50) is 6.09 nM and the βγ/αβγ ratio stood at 12. The EC50 in series [2] was determined as 0.515 nM.

Consider “K35: Table 2: 10 kD PEGylated IL-2 conjugate at site K35 [Compound K35]”, for which, in series [1], the EC50 was 6.75 nM and the βγ/αβγ ratio is given as 45. This substance also showed an EC50 in series [2] of 0.15 nM.

For the substance “K43: Table 2: 10 kD PEGylated IL-2 conjugate at site K43 [Compound K43]”, in series [1], the EC50 was 9.84 nM and the βγ/αβγ ratio is given as 75. In series [2], this substance had an EC50 of 0.131 nM.

As for “R38: Table 2: 10 kD PEGylated IL-2 conjugate at site R38 [Compound R38]”, in series [1], the midpoint of the response, the EC50, lay at 4.16 nM and the βγ/αβγ ratio is given as 25. In series [2], this substance showed a half-maximal effective concentration (EC50) of 0.165 nM.

Regarding “T41: Table 2: 10 kD PEGylated IL-2 conjugate at site T41 [Compound T41]”, the concentration giving a half-maximal response (EC50) in series [1] was 6.37 nM; in series [2] it was 0.0489 nM. Moreover, the βγ/αβγ ratio in series [1] was determined as 130.

Turning to “V69: Table 2: 30 kD PEGylated IL-2 conjugate at site V69 [Compound V69]”, the concentration giving a half-maximal response (EC50) in series [1] came to 9.99 nM; in series [2], 0.083 nM. Besides, the βγ/αβγ ratio in series [1] is given as 121.

Turning to “Y45: Table 2: 30 kD PEGylated IL-2 conjugate at site Y45 [Compound Y45]”, in series [1], the EC50 was 9.06 nM and the βγ/αβγ ratio was determined as 83. Further, it took 0.11 nM to reach a half-maximal effect in series [2] (EC50).

Regarding aldesleukin [reference compound], in series [3] (setting [6]), the AUC0-t came out at 229 ng·h/mL, the AUCINF turned out to be 230 ng·h/mL, the CL was 21.67 mL/min/kg and the highest concentration (Cmax) was determined as 884 ng/mL. In series [3] (setting [6]), the Tmax is 1.8 min, the “Vss (distribution volume)” value is 0.39 L/kg and the t½ was 34.4 min. Besides, in series [3] (C57BL/6 female mice, single IV bolus 0.3 mg/kg, E62_5 kD from a separate study, listed as aldesleukin), the t½ stood at 34.2 min. Further, the “mean plasma concentrations measurable out to (post-dose)” value in series [3] (single IV bolus, 120 h = last measured time point) is given as 4 h. For the same substance, in series [4], the “pSTAT5 induction returned to baseline after” value worked out at 2 h. Further, the “systemic levels of IFNγ” value in series [5] is “transient elevation”. The “plasma IL-5 levels” value in series [5] (dose range 0.01-5.0 mg/kg) is listed as “elevated plasma IL-5 levels starting at 1 mg/kg to 5 mg/kg”. Moreover, the “hematology, histopathology or body weights relative to vehicle control” value in series [5] (P65_30kD single IV 0.01-5.0 mg/kg, aldesleukin IV BID × 3) is given as “Abnormalities were not observed”.

The EC50 is the concentration at which the effect is half-maximal. A lower EC50 goes with higher potency in that assay. As a reminder, the Cmax is the maximum level reached in the sampled fluid or tissue. As a reminder, the Tmax is the time at which the peak concentration occurs. The t½ is the time needed for the level to fall by half in the phase considered. Read a low t½ as fast loss.
